Results published in article PMC9413441.

Biological target: SNAP-Protein G
Assay: titration on hydrogel beads, read by flow cytometry of the beads; SNAP-Protein G covalently immobilised on PHD beads (20 um, 50 uM BG); titration series of fluorescently labelled mouse IgG2b at room temperature with rolling for the indicated times, then washed; mean of triplicates fitted to fluorescence = (fluorescencemax x [IgG])/(KD + [IgG])

Question: Which Kd does the source give for “fluorescently labeled mouse IgG2b (antibody)” here?
Answer: 0.0301 µM
